Reference: the supplement of paper PMC9112550, “Optimization of the antimicrobial peptide Bac7 by deep mutational scanning” (BMC Biology, 2022)

System: Escherichia coli TOP10
Assay: shrunken log2 fold change of peptide-encoding DNA abundance (4.5 h post-induction vs induction); higher = less antimicrobial activity (less host growth inhibition)
Conditions: time post-induction: 4.5 h; library: site-saturation at positions 5, 18, 19, 20
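Further: peptides expressed intracellularly from a pBAD plasmid library in pooled LB shake-flask culture, induced with 0.3% L-arabinose, DNA abundance read by NGS, three biological replicates, DESeq2 with apeglm shrinkage.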

Row | Sequence | shrunken log2 fold change
1 | RRIRKRPPRLPRPRPRPASHPRP | 0.442
2 | RRIRKRPPRLPRPRPRPASVPRP | 0.291
3 | RRIRKRPPRLPRPRPRPATPPRP | 0.939
4 | RRIRKRPPRLPRPRPRPAVFPRP | 0.271
5 | RRIRKRPPRLPRPRPRPCAPPRP | 0.436
6 | RRIRKRPPRLPRPRPRPCDTPRP | 0.015
7 | RRIRKRPPRLPRPRPRPCDWPRP | -0.0282
8 | RRIRKRPPRLPRPRPRPCFDPRP | 0.0357
9 | RRIRKRPPRLPRPRPRPCFVPRP | -0.0847
10 | RRIRKRPPRLPRPRPRPCKHPRP | -0.11
11 | RRIRKRPPRLPRPRPRPCKQPRP | 0.0173
12 | RRIRKRPPRLPRPRPRPCLAPRP | 0.433
13 | RRIRKRPPRLPRPRPRPCLIPRP | -0.36
14 | RRIRKRPPRLPRPRPRPCLNPRP | 0.00932
15 | RRIRKRPPRLPRPRPRPCLWPRP | 0.0613
16 | RRIRKRPPRLPRPRPRPCMRPRP | 0.0327
17 | RRIRKRPPRLPRPRPRPCNHPRP | -0.16
18 | RRIRKRPPRLPRPRPRPCPAPRP | 0.17
19 | RRIRKRPPRLPRPRPRPCQAPRP | 0.157
20 | RRIRKRPPRLPRPRPRPCREPRP | 0.368
21 | RRIRKRPPRLPRPRPRPCTGPRP | 0.0143
22 | RRIRKRPPRLPRPRPRPCTIPRP | -0.204
23 | RRIRKRPPRLPRPRPRPCWNPRP | -0.228
24 | RRIRKRPPRLPRPRPRPCYHPRP | -0.339
25 | RRIRKRPPRLPRPRPRPDDPPRP | 0.237

Row | Sequence | shrunken log2 fold change
26 | RRIRKRPPRLPRPRPRPDECPRP | -0.0821
27 | RRIRKRPPRLPRPRPRPDFHPRP | -0.312
28 | RRIRKRPPRLPRPRPRPDGNPRP | 0.00833
29 | RRIRKRPPRLPRPRPRPDHCPRP | 0.00904
30 | RRIRKRPPRLPRPRPRPDHQPRP | -0.0497
31 | RRIRKRPPRLPRPRPRPDIDPRP | 2.44
32 | RRIRKRPPRLPRPRPRPDIRPRP | 0.0731
33 | RRIRKRPPRLPRPRPRPDKMPRP | -0.48
34 | RRIRKRPPRLPRPRPRPDLNPRP | 0.332
35 | RRIRKRPPRLPRPRPRPDLTPRP | -0.000918
36 | RRIRKRPPRLPRPRPRPDLWPRP | 0.123
37 | RRIRKRPPRLPRPRPRPDPHPRP | -0.0362
38 | RRIRKRPPRLPRPRPRPDPIPRP | 0.129
39 | RRIRKRPPRLPRPRPRPDPMPRP | 0.86
40 | RRIRKRPPRLPRPRPRPDRIPRP | -0.00844
41 | RRIRKRPPRLPRPRPRPDSEPRP | -0.0164
42 | RRIRKRPPRLPRPRPRPDSIPRP | -0.0839
43 | RRIRKRPPRLPRPRPRPDSMPRP | 0.0692
44 | RRIRKRPPRLPRPRPRPDSRPRP | -0.188
45 | RRIRKRPPRLPRPRPRPDSWPRP | 0.0425
46 | RRIRKRPPRLPRPRPRPDTKPRP | -0.0643
47 | RRIRKRPPRLPRPRPRPDWAPRP | -0.0624
48 | RRIRKRPPRLPRPRPRPDWTPRP | 1.54
49 | RRIRKRPPRLPRPRPRPDYRPRP | -0.157
50 | RRIRKRPPRLPRPRPRPEAAPRP | 1.8

Row | Sequence | shrunken log2 fold change
51 | RRIRKRPPRLPRPRPRPEAMPRP | 0.0888
52 | RRIRKRPPRLPRPRPRPEASPRP | 0.497
53 | RRIRKRPPRLPRPRPRPEAVPRP | 0.15
54 | RRIRKRPPRLPRPRPRPEEEPRP | 0.0391
55 | RRIRKRPPRLPRPRPRPEKAPRP | 0.0283
56 | RRIRKRPPRLPRPRPRPELIPRP | 0.0174
57 | RRIRKRPPRLPRPRPRPELKPRP | 0.978
58 | RRIRKRPPRLPRPRPRPELSPRP | 0.0277
59 | RRIRKRPPRLPRPRPRPEMEPRP | 3.59
60 | RRIRKRPPRLPRPRPRPEMIPRP | 0.0131
61 | RRIRKRPPRLPRPRPRPEMPPRP | 0.668
62 | RRIRKRPPRLPRPRPRPEMSPRP | 0.325
63 | RRIRKRPPRLPRPRPRPENDPRP | -0.0386
64 | RRIRKRPPRLPRPRPRPENMPRP | 0.11
65 | RRIRKRPPRLPRPRPRPENPPRP | 0.126
66 | RRIRKRPPRLPRPRPRPEPMPRP | 0.504
67 | RRIRKRPPRLPRPRPRPEQHPRP | 0.586
68 | RRIRKRPPRLPRPRPRPEQRPRP | 0.431
69 | RRIRKRPPRLPRPRPRPERCPRP | 0.559
70 | RRIRKRPPRLPRPRPRPESNPRP | 1.13
71 | RRIRKRPPRLPRPRPRPETAPRP | 1.21
72 | RRIRKRPPRLPRPRPRPEVGPRP | 1.29
73 | RRIRKRPPRLPRPRPRPEWCPRP | 0.278
74 | RRIRKRPPRLPRPRPRPEWGPRP | 0.755
75 | RRIRKRPPRLPRPRPRPEWSPRP | 0.0885

Row | Sequence | shrunken log2 fold change
76 | RRIRKRPPRLPRPRPRPEYKPRP | 0.0908
77 | RRIRKRPPRLPRPRPRPFACPRP | -0.0138
78 | RRIRKRPPRLPRPRPRPFAKPRP | 0.0238
79 | RRIRKRPPRLPRPRPRPFCVPRP | 0.706
80 | RRIRKRPPRLPRPRPRPFDAPRP | 0.337
81 | RRIRKRPPRLPRPRPRPFDEPRP | 0.0269
82 | RRIRKRPPRLPRPRPRPFEDPRP | -0.136
83 | RRIRKRPPRLPRPRPRPFEWPRP | -0.0618
84 | RRIRKRPPRLPRPRPRPFFNPRP | 0.0296
85 | RRIRKRPPRLPRPRPRPFGMPRP | -0.00211
86 | RRIRKRPPRLPRPRPRPFIWPRP | -0.0554
87 | RRIRKRPPRLPRPRPRPFLPPRP | -0.0487
88 | RRIRKRPPRLPRPRPRPFPKPRP | 0.169
89 | RRIRKRPPRLPRPRPRPFQDPRP | 0.118
90 | RRIRKRPPRLPRPRPRPFREPRP | 0.223
91 | RRIRKRPPRLPRPRPRPFRTPRP | 0.000407
92 | RRIRKRPPRLPRPRPRPFSPPRP | -0.102
93 | RRIRKRPPRLPRPRPRPFVHPRP | -0.254
94 | RRIRKRPPRLPRPRPRPFVNPRP | -0.122
95 | RRIRKRPPRLPRPRPRPFWDPRP | -0.0842
96 | RRIRKRPPRLPRPRPRPFWLPRP | 0.341
97 | RRIRKRPPRLPRPRPRPFWRPRP | 0.00905
98 | RRIRKRPPRLPRPRPRPFYWPRP | 0.144
99 | RRIRKRPPRLPRPRPRPGAKPRP | 1.16
100 | RRIRKRPPRLPRPRPRPGCEPRP | 1.31

Row | Sequence | shrunken log2 fold change
101 | RRIRKRPPRLPRPRPRPGCFPRP | 0.421
102 | RRIRKRPPRLPRPRPRPGCNPRP | 0.754
103 | RRIRKRPPRLPRPRPRPGDWPRP | 0.485
104 | RRIRKRPPRLPRPRPRPGENPRP | 0.318
105 | RRIRKRPPRLPRPRPRPGERPRP | -0.116
106 | RRIRKRPPRLPRPRPRPGFPPRP | 0.419
107 | RRIRKRPPRLPRPRPRPGGEPRP | 0.753
108 | RRIRKRPPRLPRPRPRPGGNPRP | 0.049
109 | RRIRKRPPRLPRPRPRPGHVPRP | -0.165
110 | RRIRKRPPRLPRPRPRPGHYPRP | 0.0236
111 | RRIRKRPPRLPRPRPRPGIPPRP | -0.0948
112 | RRIRKRPPRLPRPRPRPGKGPRP | -0.0491
113 | RRIRKRPPRLPRPRPRPGLAPRP | 0.977
114 | RRIRKRPPRLPRPRPRPGLKPRP | 0.377
115 | RRIRKRPPRLPRPRPRPGLWPRP | 0.66
116 | RRIRKRPPRLPRPRPRPGMLPRP | 0.542
117 | RRIRKRPPRLPRPRPRPGMNPRP | -0.0284
118 | RRIRKRPPRLPRPRPRPGQPPRP | 0.0678
119 | RRIRKRPPRLPRPRPRPGRHPRP | 0.227
120 | RRIRKRPPRLPRPRPRPGRPPRP | 0.857
121 | RRIRKRPPRLPRPRPRPGSKPRP | -0.0334
122 | RRIRKRPPRLPRPRPRPGWRPRP | 0.348
123 | RRIRKRPPRLPRPRPRPGYHPRP | 0.0924
124 | RRIRKRPPRLPRPRPRPGYNPRP | 0.178
125 | RRIRKRPPRLPRPRPRPHAAPRP | -0.0457

Row | Sequence | shrunken log2 fold change
126 | RRIRKRPPRLPRPRPRPHATPRP | 1.06
127 | RRIRKRPPRLPRPRPRPHCRPRP | -0.022
128 | RRIRKRPPRLPRPRPRPHCVPRP | -0.0287
129 | RRIRKRPPRLPRPRPRPHDQPRP | 0.0273
130 | RRIRKRPPRLPRPRPRPHECPRP | 0.286
131 | RRIRKRPPRLPRPRPRPHEHPRP | 0.0272
132 | RRIRKRPPRLPRPRPRPHENPRP | -0.00978
133 | RRIRKRPPRLPRPRPRPHEPPRP | 0.0467
134 | RRIRKRPPRLPRPRPRPHFIPRP | 0.136
135 | RRIRKRPPRLPRPRPRPHGKPRP | 0.109
136 | RRIRKRPPRLPRPRPRPHGPPRP | 0.0129
137 | RRIRKRPPRLPRPRPRPHHPPRP | -0.123
138 | RRIRKRPPRLPRPRPRPHKGPRP | -0.0331
139 | RRIRKRPPRLPRPRPRPHKHPRP | -0.119
140 | RRIRKRPPRLPRPRPRPHKRPRP | 0.434
141 | RRIRKRPPRLPRPRPRPHMHPRP | -0.186
142 | RRIRKRPPRLPRPRPRPHMLPRP | -0.105
143 | RRIRKRPPRLPRPRPRPHMNPRP | -0.295
144 | RRIRKRPPRLPRPRPRPHMSPRP | 0.0205
145 | RRIRKRPPRLPRPRPRPHMVPRP | -0.33
146 | RRIRKRPPRLPRPRPRPHNHPRP | -0.533
147 | RRIRKRPPRLPRPRPRPHSWPRP | 0.0385
148 | RRIRKRPPRLPRPRPRPHVGPRP | 0.176
149 | RRIRKRPPRLPRPRPRPHVIPRP | -0.257
150 | RRIRKRPPRLPRPRPRPHWAPRP | 0.118
